Measured values reported in US20230110249A1 (University of California, published 2023).
Each block holds one binder with its values, some of them ahead of it.

What was measured:
[1] = target: T1, human ROR1 protein (construct not stated) (human, UniProt Q01973 30-406, limits assumed); experiment: method not stated (binding affinity; FIG. 12C)
T1 construct: also called hROR1

[2] = target: recombinant human ROR1 protein with the mouse amino acid residue at position 138 (human, UniProt Q01973 30-406, limits assumed); experiment: immunoblot after non-denaturing PAGE (FIG. 10)
Chain of recombinant human ROR1 protein with the mouse amino acid residue at position 138 (Q01973 30-406 E138K limits assumed): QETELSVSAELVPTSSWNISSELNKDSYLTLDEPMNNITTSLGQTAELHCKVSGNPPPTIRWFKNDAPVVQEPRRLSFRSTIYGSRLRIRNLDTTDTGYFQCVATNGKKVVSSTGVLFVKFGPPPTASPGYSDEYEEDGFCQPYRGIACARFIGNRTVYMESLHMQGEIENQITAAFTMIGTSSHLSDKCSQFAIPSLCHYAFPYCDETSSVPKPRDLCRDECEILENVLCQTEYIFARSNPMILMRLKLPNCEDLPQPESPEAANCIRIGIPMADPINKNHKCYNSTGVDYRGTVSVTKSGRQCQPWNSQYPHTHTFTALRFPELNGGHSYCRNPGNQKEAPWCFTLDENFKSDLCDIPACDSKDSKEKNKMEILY
Text: Constructs depicted in FIG. 6 were used to select high affinity recombinant antibodies. […] Human and chimeric ROR1-ex constructs were transfected into 293 cells. This allowed for production of recombinant human-mouse chimeric ROR1 proteins that could be size separated in a non-denaturing PAGE gel or SDS PAGE gel for immunoblot analysis with different anti-ROR1 mAb. […] The full human extracellular domain is provided on the far left lane of either gel (FIG. 11).

[3] = target: T1, human ROR1 protein (construct not …); experiment: method not stated (FIG. 12)

T1 sequence (Q01973 30-406 limits assumed): as the sequence (Q01973 30-406 E138K limits assumed) above, with K109E counted along it

- Kd [1]: 0.041 µM
B1: anti-ROR1 monoclonal antibody D10 (antibody, V domains shown)
VH: QVQLKESGPGLVAPSQTLSITCTVSGFSLTSYGVHWVRQPPGKGLEWLGVIWAGGFTNYNSALKSRLSISKDNSKSQVLLKMTSLQTDDTAMYYCARRGSSYSMDYWGQGTSVIVSS
VL: EIVLSQSPAITAASLGQKVTITCSASSNVSYIHWYQQRSGTSPRPWIYEISKLASGVPVRFSGSGSGTSYSLTISSMEAEDAAIYYCQQWNYPLITFGSGTKLEIQ

- binding result [2]: no binding
- Kd [1]: 0.0008 µM
- fold higher binding affinity than D10 [3]: 50 fold
B2: anti-human ROR1 antibody 99961 (antibody, V domains shown)
VH: EIQLQQSGPVLVKPGASVKVSCKASGYAFTAYNIHWVRQSHGKRLEWIGSFDPYDGGSSYNQKFKDKATLTVDKSSTTAYMHLNSLTSEDSAVYYCARGWYYFDYWGHGTTLTVSS
VL: DVQITQSPSYLAASPGETITINCRASKSISKYLAWYQEKPGKTNKLLIYSGSTLQSGIPSRFRGSGSGTDFTLTISSLEPEDFAMYYCQQHDESPYTFGEGTKLEIK
notes: also called Ab9991
